The source of these data is patent publication US10752676B2 (UCB Biopharma SPRL, priority 2011, dated 2020).

The subject of series [1] is Clostridium difficile strain ATCC43596. Description: Anti-C. difficile toxin Mab hamster infection study. The series is classed as in vivo, Golden Syrian hamsters. Conditions: 5 mg/kg twice a day for 5 days (p.o.) on days 1-5. The protocol:
The hamster infection study was performed by Ricerca Biosciences LLC, Cleveland, Ohio, USA. The study protocol was approved by the Ricerca IACUC committee. Active and control components (composition and dose) were blinded to Ricerca staff until after completion of the planned 28 day study period.
Golden Syrian male hamsters (weight 82-103 g, 54 days old) were individually housed in HEPA filtered disposable cages and fed Teklad Global Diet 2016 and water ad libitum. After acclimatisation, hamsters were pre-dosed (i.p.) with Mab mixtures or PBS (vehicle control) once a day for each of 4 days: days −3, −2, −1 and 0. Two doses of Mab were investigated: high dose=50 mg/kg each of anti-TcdA and anti-TcdB components and low dose 5 mg/kg each of anti-TcdA and anti-TcdB components.
Hamsters were sensitised (day −1) with 50 mg/kg of Clindamycin phosphate in PBS (s.c.) before being challenged 1 day later (day 0) with 3.4×106 c.f.u. of vegetative cells from strain ATCC43596. […]
Viability checks were performed on animals twice a day, animals found to be in extremis were euthanised and counted as dead. Body weights were determined on each day of dosing, then twice weekly and before euthanising survivors. […] Survival curves were analysed using the P value from the log rank test compared to the Bonferroni corrected threshold of P=0.005. […]

Another series deals with TcdA456 (Clostridioides difficile, UniProt P16154). The settings on record: Purified Mab 5 point titration.
Series [2] in a line: Thermal stability (Tm) measured via Thermofluor assay. It counts as physicochemical. Conditions: PBS pH 7.40. The protocol:
This method uses Sypro orange fluorescent dye to monitor the unfolding process of protein domains. The dye binds to exposed hydrophobic regions that become exposed as a consequence of unfolding which results in a change to the emission spectrum.
The sample (5 ul at 1 mg/ml) is mixed with a 5 ul of a stock solution of Sypro orange (30×) and the volume made up to 50 ul with PBS, pH 7.40.
10 ul aliquots of this solution is applied to wells in a 384 well plate (n=4).
The plate is placed in a 7900HT fast real-time PCR system containing a heating device for accurate temperature control. The temperature is increased from 20° C. to 99° C. (Ramp rate of 1.1° C./min). A CCD device simultaneously monitors the fluorescence changes in the wells. An algorithm is used to process intensity data and take into account multiple transitions.

A short description of series [3]: Estimation of isoelectric point (pI) by capillary IEF. It counts as physicochemical. As for the experimental part:
Samples were prepared by mixing the following: 30 ul Protein sample at 2 mg/ml, 0.35% Methylcellulose, 4% pH3-10 ampholytes (Pharmalyte), synthetic pI markers (4.65 and 9.77), 1 ul of each stock solution, and HPLC grade water to make up the final volume to 200 ul. The mixture was then analysed using iCE280 IEF analyzer (pre-focusing at 1500V for 1 min followed by focusing at 3000V for 6 mins). The calibrated electropherograms were then integrated using Empower software (from Waters)

The target of the next series is TcdB1234 (Clostridioides difficile, UniProt P18177). The settings on record: Purified Mab 3 point titration.

Protocol for TcdA456: (§1) Kinetic constants for the interactions of anti-C. difficile TcdA and TcdB antibodies were determined by surface plasmon resonance conducted on a BIAcore 3000 using CM5 sensor chips. All experiments were performed at 25° C. Affinipure F(ab′)2 fragment goat anti-human IgG, Fc fragment specific (Jackson ImmunoResearch) was immobilised on a CM5 Sensor Chip (GE) via amine coupling chemistry to a capture level of ≈7000 response units (RUs).
(§2) Double referenced background subtracted binding curves were analysed using the BIAevaluation software (version 3.2) following standard procedures. Kinetic parameters were determined from the fitting algorithm
Protocol for TcdB1234: as §1, §2

In the case of `CN[C@H](CC(C)C)C(=O)N[C@H]1C(=O)N[C@@H](CC(N)=O)C(=O)N[C@H]2C(=O)N[C@H]3C(=O)N[C@H](C(=O)N[C@H](C(=O)O)c4cc(O)cc(O)c4-c4cc3ccc4O)[C@H](O)c3ccc(c(Cl)c3)Oc3cc2cc(c3O[C@@H]2O[C@H](CO)[C@@H](O)[C@H](O)[C@H]2O[C@H]2C[C@](C)(N)[C@H](O)[C@H](C)O2)Oc2ccc(cc2Cl)[C@H]1O` [vancomycin], the survival entry in series [1] is “all died on days +10 and +11”.

B1: CA995: humanised anti-toxin A IgG1; light chain variable SEQ ID NO: 37, heavy SEQ ID NO: 39 (antibody, V domains shown)
VH: EVQLVESGGGLVQPGGSLRLSCTASGFSLSNYDMIWVRQAPGKGLEYIGFINTGGITYYASWAKGRFTISRDSSTVYLQMNSLRAEDTATYFCARVDDYIGAWGAGLWGQGTLVTVS
VL: DVVMTQSPSTLSASVGDRVTITCQASQSINNYFSWYQQKPGKAPKLLIYGAANLASGVPSRFKGSGSGTEYTLTISSLQPDDFATYSCQNNYGVHIYGAAFGGGTKVEIK
modifications: Antibody variable region for anti-TcdA antibody 995 (heavy chain); Antibody variable region for anti-TcdA antibody 995
Regarding B1, in the series with TcdA456, the “ka” value was determined as 287000 M⁻¹ s⁻¹ and the “kd” value worked out at 3.42e-05 s⁻¹. Moreover, the “Tm(Fab) in PBS” value in series [2] was found to be 71 °C. Moreover, the “measured pI” value in series [3] is on record as 8.5.

B2: 1134.g5: anti-toxin B antibody; light chain variable SEQ ID NO: 147, heavy SEQ ID NO: 149 (antibody, V domains shown)
VH: EVQLQESGPGLVKPSETLSLTCTVSGFSLNSYTITWVRQPPGKGLEWIAAISGGGSTYFNSALKSRVTISRDTSKSQVSLKLSSVTAADTAVYYCTRPRWYPRSYFDYWGRGTLVTVS
VL: DVQLTQSPSFLSASVGDRVTITCKASKSISNHLAWYQEKPGKANKLLIHSGSTLQPGTPSRFSGSGSGTEFTLTISSLQPEDFATYYCQQYDEYPYTFGQGTRLEIK
modifications: Antibody variable region for anti-TcdB antibody 1134 (heavy chain); Antibody variable region for anti-TcdB antibody 1134
With B2, in series [2], the “Tm(CH2)” value is 69.2 °C and the “Tm(Fab) in PBS” value was determined as 76.4 °C. Also, the “measured pI” value in series [3] is recorded as 9.2. For the same molecule, in the series with TcdB1234, the “ka” value stood at 509000 M⁻¹ s⁻¹ and the “kd” value was determined as 2.45e-05 s⁻¹.
